For the experiment, the target named is human IL-8 in L-CMV melanoma cell conditioned medium (human) (UniProt P10145). As to the kind of experiment: cell-based or functional assay.
Sequence of UniProt P10145 (P10145 23-99 limits assumed): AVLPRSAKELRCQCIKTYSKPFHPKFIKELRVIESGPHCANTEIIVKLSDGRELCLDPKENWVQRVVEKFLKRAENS

In turn, “mouse anti-hIL-8 mAb (6214.11, R&D Systems) (antibody)” came in with an inhibition of PMNLs chemotaxis induced by L-CMV CCM of 30%.

For the origin of these results see patent US7067495.
